Like-named read-outs stand apart in the source and are kept apart here.
T1: monkey PD-1-hFc (monkey)
T1 construct: Extracellular domain of monkey PD-1 fused to an hFc tag, made in house; not shown: The hFc tag and any linker
T1 chain: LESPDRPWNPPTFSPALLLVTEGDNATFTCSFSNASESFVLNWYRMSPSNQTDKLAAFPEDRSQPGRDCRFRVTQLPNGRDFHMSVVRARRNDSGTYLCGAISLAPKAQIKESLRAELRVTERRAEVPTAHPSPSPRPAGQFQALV

T2: human ICOS (human, UniProt Q9Y6W8 21-140, limits assumed)
T2 construct: Bought
T2 sequence (looked up): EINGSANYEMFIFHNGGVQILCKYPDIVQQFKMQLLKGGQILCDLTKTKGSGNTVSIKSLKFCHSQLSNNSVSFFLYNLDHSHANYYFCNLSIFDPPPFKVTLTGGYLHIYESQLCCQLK

B1: 91D5-HZ2-IgG1-1D (antibody)
heavy: EVQLVQSGAEVKKPGASVKVSCKASGYTFTDYYMNWVREAPGQGLEWMGEINPKYGDTTYNQKFKDRATLTVDKSTSTAYMELSSLRSDDTAVYYCAKGIRLFDSWGQGTLVTVSSASTKGPSVFPLAPSSKSTSGGTAALGCLVKDYFPEPVTVSWNSGALTSGVHTFPAVLQSSGLYSLSSVVTVPSSSLGTQTYICNVNHKPSNTKVDKRVEPKSCDKTHTCPPCPAPEAAGGPSVFLFPPKPKDTLMISRTPEVTCVVVAVSHEDPEVKFNWYVDGVEVHNAKTKPREEQYNSTYRVVSVLTVLHQDWLNGKEYKCKVSNKALPAPIEKTISKAKGQPREPQVYTLPPSREEMTKNQVSLTCLVKGFYPSDIAVEWESNGQPENNYKTTPPVLDSDGSFFLYSKLTVDKSRWQQGNVFSCSVMHEALHAHYTQKSLSLSPGK
light: DIQLTQSPSSLSASVGDRVTITCRPSGNVHNYFAWYQQKPGKSPKLLVYNAKTLAEGVPSRFSGSGSGTDYTLTISSLQPEDFATYYCHHYYTAPFTFGGGTKVEIKRTVAAPSVFIFPPSDEQLKSGTASVVCLLNNFYPREAKVQWKVDNALQSGNSQESVTEQDSKDSTYSLSSTLTLSKADYEKHKVYACEVTHQGLSSPVTKSFNRGEC
notes: also called IgG1-1D mutant anti-PD-1 humanized antibody
B2: 35E6-HZ1-IgG1-1D (antibody)
heavy: QVQLQESGPGLVKPSETLSLTCTVSGYSITSDYWSWIRQPPGKGLEWIGYINYDGDNNYNPSLKSRVTISRDTSKNQFSLKLSSVTAADTAVYYCARGGFDYWGQGTLVTVSSASTKGPSVFPLAPSSKSTSGGTAALGCLVKDYFPEPVTVSWNSGALTSGVHTFPAVLQSSGLYSLSSVVTVPSSSLGTQTYICNVNHKPSNTKVDKRVEPKSCDKTHTCPPCPAPEAAGGPSVFLFPPKPKDTLMISRTPEVTCVVVAVSHEDPEVKFNWYVDGVEVHNAKTKPREEQYNSTYRVVSVLTVLHQDWLNGKEYKCKVSNKALPAPIEKTISKAKGQPREPQVYTLPPSREEMTKNQVSLTCLVKGFYPSDIAVEWESNGQPENNYKTTPPVLDSDGSFFLYSKLTVDKSRWQQGNVFSCSVMHEALHAHYTQKSLSLSPGK
light: EIVLTQSPATLSLSPGERATLSCRASESVEYYGTNLMQWYQQKPGQPPRLLIYFASNVASGIPARFSGSGSGTDFTLTISSLEPEDFAVYFCQQSKKVPSTFGQGTKVEIKRTVAAPSVFIFPPSDEQLKSGTASVVCLLNNFYPREAKVQWKVDNALQSGNSQESVTEQDSKDSTYSLSSTLTLSKADYEKHKVYACEVTHQGLSSPVTKSFNRGEC
notes: as for B1
B3: murine antibody 42G1 (antibody, V domains shown)
VH: QVQLKESGAELAKPGASVKMSCEASGYALTSYWMHWVKQGPGQGLEWIGYIHPSTGYTEYNQIFEDKATLSADKSSNTAYMQLTSLTSDDSAVYYCARGAGPYYFDYWGQGTTLTVSS
VL: DIQLTQSPSSLAVSAGEKVIMSCKSSQSLLNSGTRKNYLAWYQQKPGQSPKLLIFWASTRESGVPDRFTGSGSGTDFTLTISSFQAEDLAVYYCKQSYDLITFGPGTKLEIK
notes: Murine antibody from a hybridoma; also called murine PD-1 antibody 42G1
B4: murine antibody 29C6 (antibody, V domains shown)
VH: QVQLEESGPELVKPGASVKISCKTSGYTFTEYTIYWVKQSHGKSLEWIGGINPKNGATLYNQKFKVKATLTVDKSSSTAYMELRSLTSEDSAVYYCVRDYHGNSHDSMDYWGQGTSVTVSS
VL: QIVLTQSPAIMSASPGEKVTITCSASSSVSYMHWFRQKPGTSPKLWIYYTSNLASGVPAHFSGSGSGTSYSLTISRMEAEDAATYYCQQRSDYPPTFGGGTKLEIK
notes: Murine antibody from a hybridoma; also called murine PD-1 antibody 29C6
B5: murine antibody 91D5 (antibody, V domains shown)
VH: EVQLQQSGPELVKPGASVKISCRASGYTFTDYYMNWVKESHGKSLEWIGEINPKYGDTTYNQKFKDKATLTVDKSSSTASVELRSLTSEDSAVYYCAKGIRLFDSWGQGTTVTVSS
VL: DIQLTQSPASLSASVGETVTITCRPSGNVHNYFAWYQQKQGKSPQLLVYNAKTLAEGVPSRFSGSGSGTQYSLKINSLQPEDFGTYYCHHYYTAPFTFGSGTKLEIK
notes: Murine antibody from a hybridoma

How the values were obtained:
[1] = molecular target: T3, full-length human PD-1 on CHO-hPD-1 cells (human, UniProt Q15116 25-288); test: competitive flow cytometry on CHO-hPD-1 cells; blocked ligand PD-L1 (PD-L1-mFc-Bio)
T3 construct: whole, on cells; also called PD-1 on the cell membrane surface of CHO-hPD-1
Text: (§1) The data were imported into Graphprism to calculate IC₅₀ values.

CD64 protein [2] = molecular target: T4, CD64 protein (UniProt P12314 16-288, limits assumed); test: BLI (Octet ForteBio), CD64 immobilised on an SA biosensor, antibody in solution
T4 construct: also called FcγRI

human PD-1-ECD-mFc = molecular target: T5, human PD-1-ECD-mFc (human; mouse, UniProt Q15116 25-170); test: ELISA, coated human PD-1-mFc
T5 construct: extracellular domain; Made in HEK293F cells; also called human PD-1-mFc; PD-1-mFc; not shown: mouse Fc (mFc) amino acids, AB097847.1

[3] = molecular target: T3, full-length human PD-1 on CHO-hPD-1 …; test: flow cytometry on CHO-hPD-1 cells with FITC-labeled antibody
[4] = molecular target: T3, full-length human PD-1 on CHO-hPD-1 …; test: flow cytometry, FITC-labelled antibody on CHO-hPD-1 cells
monkey PD-1-hFc [5] = molecular target: T1, monkey PD-1-hFc; test: ELISA, coated monkey PD-1-hFc
Procedure: (§2) The specific experimental steps were as follows: human PD-1-hFc and monkey PD-1-hFc antigens were diluted to 1 μg/mL with CBS solution, then coated on a 96-well ELISA plate (purchased from Guangzhou Jiete Bio) at 4° C. overnight. […] After washing, a goat anti-human secondary antibody (FC) labeled with horseradish peroxidase diluted in phosphate buffer (PBS) containing 2% BSA in a ratio of 1:15000 was added, followed by incubating at 37° C. for 1 hour. After washing, the TMB chromogen solution was used for developing, and the absorbance value was read using a microplate reader at 450 nm, and the data were imported into Graphprism to calculate EC₅₀ values.

[6] = molecular target: T3, full-length human PD-1 on CHO-hPD-1 …; test: competitive FACS on CHO-hPD-1 cells, competitor PD-L1-mFc-Bio
Text: as §1

human ICOS = molecular target: T2, human ICOS; test: ELISA, coated antigen 1 µg/mL
Procedure: (§3) After washing, a goat anti-human IgG secondary antibody labeled with horseradish peroxidase diluted in phosphate buffer (PBS) containing 2% BSA in a ratio of 1:15000 was added, followed by incubating at 37° C. for 1 hour. After washing, the TMB chromogen solution was used for developing, and the absorbance value was read using a microplate reader at 450 nm. The data were imported into Graphprism to calculate EC₅₀ values.

human BTLA-his = molecular target: T6, human BTLA-his (human, UniProt Q7Z6A9 31-157, limits assumed); test: ELISA on coated human BTLA-his, HRP goat anti-human IgG detection
T6 construct: Bought; not shown: His tag
Procedure: as §3

human PD-1-His = molecular target: T7, human PD-1-His (human, UniProt Q15116 25-170); test: BLI (Octet ForteBio), antibody on ProA biosensor, PD-1-His in solution
T7 construct: extracellular domain; not shown: His tag

FcRn protein = molecular target: T8, FcRn protein (UniProt P55899 24-297; P61769 21-119); test: BLI (Octet ForteBio), FcRn on SA biosensor, antibody in PBST pH6.0
T8 construct: Immobilised on an SA biosensor
Text: The antibody Fc can bind to FcRn so that it cannot be easily cleared in vivo, thus prolonging the half-life in vivo.

[7] = molecular target: PD-1 on Jurkat-PD-1-NFAT cells (UniProt Q15116 25-288, limits assumed); test: cell-based or functional assay
human PD-L1-his = molecular target: T9, human PD-L1-his (human, UniProt Q9NZQ7 19-239, limits assumed); test: ELISA on coated human PD-L1-his, HRP goat anti-human IgG detection
T9 construct: Bought; not shown: His tag
Procedure: as §3

CD64 protein [8] = molecular target: T4, CD64 protein; test: BLI (Octet ForteBio), CD64 immobilised on an SA biosensor, antibody in solution; remark: listed apart in the source
monkey PD-1-hFc [9] = molecular target: T1, monkey PD-1-hFc; test: ELISA, coated monkey PD-1-hFc
Procedure: (§4) In order to verify the binding affinity of murine anti-PD-1 antibody to human PD-1-hFc and monkey PD-1-hFc, ELISA was used. The specific experimental steps are as follows: human PD-1-hFc and monkey PD-1-hFc were diluted to 1 μg/mL with CBS solution, and then coated on a 96-well ELISA plate (purchased from Guangzhou Jiete Bio) at 4° C. overnight. […] After washing, a goat anti-mouse secondary antibody (FC) labeled with horseradish peroxidase diluted in phosphate buffer (PBS) containing 2% BSA in a ratio of 1:15000 was added, followed by incubating at 37° C. for 1 hour. After washing, the TMB chromogen solution was used for developing, and the absorbance value was read using a microplate reader at 450 nm. The data were imported into Graphprism to calculate the EC₅₀ value.

[10] = molecular target: T3, full-length human PD-1 on CHO-hPD-1 …; test: flow cytometry on CHO-hPD-1 cells
Text: (§5) In order to verify the binding of anti-human PD-1 murine antibody to PD-1 on the cell membrane surface, FACS technology was used to detect the affinity between murine antibodies and CHO-hPD-1 cells.

human PD-1-hFc [11] = molecular target: T10, human PD-1-hFc (human, UniProt Q15116 25-170); test: competitive ELISA, coated human PD-1-hFc, competitor biotinylated PD-L1-mFc
T10 construct: extracellular domain; Extracellular domain of human PD-1 fused to an hFc tag, made in house; not shown: hFc tag
Procedure: as §2, with “human” for “human PD-1-hFc and monkey”, “streptavidin” for “a goat anti-human secondary antibody (FC)”, “room temperature” for “37° C.”, “the IC₅₀ value.” for “EC₅₀ values.”

human PD-1-hFc [12] = molecular target: T10, human PD-1-hFc; test: ELISA, coated human PD-1-hFc
Procedure: as §4

[13] = molecular target: T3, full-length human PD-1 on CHO-hPD-1 …; test: flow cytometry on CHO-hPD-1 cells, FITC anti-mouse IgG secondary antibody
Text: as §5

Binder | IC50 (read off the curve) [1] | EC50 (human PD-1-ECD-mFc) | EC50 (read off the curve) [3] | EC50 [4] | EC50 (monkey PD-1-hFc [5]) | IC50 [6] | binding result (human ICOS) | binding result (human BTLA-his) | Kd (human PD-1-His) | koff (human PD-1-His) | kon (human PD-1-His) | Kd (FcRn protein) | koff (FcRn protein) | kon (FcRn protein) | EC50 by the PD-1/PD-L1 luciferase reporter system [7] | binding result (human PD-L1-his) | EC50 (monkey PD-1-hFc [9]) | EC50 [10] | IC50 (human PD-1-hFc [11]) | EC50 (human PD-1-hFc [12]) | other results
B1 | ~200 ng/mL | 0.104 nM | ~10 ng/mL | 0.093 nM | 0.25 nM | 1.32 ng/mL | no binding (tested: 10 µg/mL and 1 µg/mL) | no binding (tested: 10 ug/mL) | 1.17 nM | 0.00023 s⁻¹ | 384000 M⁻¹ s⁻¹ | 5.33 nM | 0.00725 s⁻¹ | 1.36e+06 M⁻¹ s⁻¹ | 3.48 nM | no binding (tested: 10 ug/mL) | – | – | – | – | binding result (CD64 protein [2]): no binding
B2 | ~100 ng/mL | 0.121 nM | ~10 ng/mL | 0.078 nM | 0.309 nM | 0.818 ng/mL | no binding (tested: 10 µg/mL and 1 µg/mL) | no binding (tested: 10 ug/mL) | 1.32 nM | 0.000306 s⁻¹ | 333000 M⁻¹ s⁻¹ | 7.89 nM | 0.00746 s⁻¹ | 946000 M⁻¹ s⁻¹ | 2.81 nM | no binding (tested: 10 ug/mL) | – | – | – | – | binding result (CD64 protein [8]): no binding
B3 | – | – | – | – | – | – | – | – | – | – | – | – | – | – | – | – | 0.0595 nM | 6.62 nM | 4.5 nM | 0.0513 nM | EC50 (read off the curve) [13]: ~7 nM
B4 | – | – | – | – | – | – | – | – | – | – | – | – | – | – | – | – | 0.0344 nM | 3.12 nM | 2.93 nM | 0.0355 nM | EC50 (read off the curve) [13]: ~3 nM
B5 | – | – | – | – | – | – | – | – | – | – | – | – | – | – | – | – | 0.0685 nM | – | 4.25 nM | 0.044 nM | –

Reference: US20240425593A1 (SICHUAN KELUN BIOTECH BIOPHARMACEUTICAL, published 2024)
